The values below come from patent publication US20220273789A1.

The target in this test is human IgG (human). In words: BLI Octet, construct on Ni-NTA sensor, hIgG in solution.
In the case of “HSV2-gE_R314N_gI (from UniProt P89475 21-416; P06764 21-256) (receptor)”, the Kd was 1310 nM, the Response (nm) amounted to 0.301 nm, the koff is 0.00748 s⁻¹ and the kon is 5700 M⁻¹ s⁻¹.
On the same counts, the results for “HSV2-gE_R320N_gI (from UniProt P89475 21-416; P06764 21-256) (receptor)” are 828 nM, 0.379 nm, 0.00493 s⁻¹ and 5950 M⁻¹ s⁻¹.
“HSV2-gE_R314T_gI (from UniProt P89475 21-416; P06764 21-256) (receptor)” registered a Kd of 575 nM, a Response (nm) of 0.417 nm, a koff of 0.0049 s⁻¹ and a kon of 8530 M⁻¹ s⁻¹.
For the substance “HSV2-gE_R320P_gI (from UniProt P89475 21-416; P06764 21-256) (receptor)”, the Kd stood at 1650 nM, the Response (nm) amounted to 0.267 nm, the koff came out at 0.00235 s⁻¹ and the kon was determined as 1420 M⁻¹ s⁻¹.
In the case of “HSV2-gE_V340A_gI (from UniProt P89475 21-416; P06764 21-256) (receptor)”, the Kd was found to be 474 nM, the Response (nm) was found to be 0.356 nm, the koff is 0.00422 s⁻¹ and the kon was 8910 M⁻¹ s⁻¹.
Substance “HSV2-gE_H245R_gI (from UniProt P89475 21-416; P06764 21-256) (receptor)” gave a Kd of 265 nM, a Response (nm) of 0.842 nm, a koff of 0.00416 s⁻¹ and a kon of 15700 M⁻¹ s⁻¹.
“HSV2-gE_A246W P317K_gI (from UniProt P89475 21-416; P06764 21-256) (receptor)”: the Kd was below 0.001 nM, the Response (nm) amounted to 0.071 nm, the koff was below 1e-07 s⁻¹ and the kon was determined as 6090 M⁻¹ s⁻¹.
Consider “HSV2-gE_H245T_gI (from UniProt P89475 21-416; P06764 21-256) (receptor)”, for which the Kd came out at 813 nM, the Response (nm) amounted to 0.493 nm, the koff was found to be 0.00605 s⁻¹ and the kon stood at 7450 M⁻¹ s⁻¹.
As to “HSV2-gE_P318Q_gI (from UniProt P89475 21-416; P06764 21-256) (receptor)”, the Kd is 443 nM, the Response (nm) came to 0.152 nm, the koff was determined as 0.00139 s⁻¹ and the kon came to 3150 M⁻¹ s⁻¹.
Consider “HSV2-gE_P318T_gI (from UniProt P89475 21-416; P06764 21-256) (receptor)”, for which the Kd came to 14900 nM, the Response (nm) stood at 0.174 nm, the koff amounted to 0.00711 s⁻¹ and the kon came to 478 M⁻¹ s⁻¹.
In turn, “HSV2-gE_P318S_gI (from UniProt P89475 21-416; P06764 21-256) (receptor)” had a Kd of 9900 nM, a Response (nm) of 0.124 nm, a koff of 0.00504 s⁻¹ and a kon of 509 M⁻¹ s⁻¹.
Regarding “HSV2-gE_R314P_gI (from UniProt P89475 21-416; P06764 21-256) (receptor)”, the Kd came out at 443 nM, the Response (nm) stood at 0.557 nm, the koff was 0.00474 s⁻¹ and the kon worked out at 10700 M⁻¹ s⁻¹.
Substance “HSV2-gE_A246W R320D_gI (from UniProt P89475 21-416; P06764 21-256) (receptor)” displayed a Kd below 0.001 nM, a Response (nm) of 0.0712 nm, a koff below 1e-07 s⁻¹ and a kon of 2260 M⁻¹ s⁻¹.
On the same counts, the results for “HSV2-gE_S338L_gI (from UniProt P89475 21-416; P06764 21-256) (receptor)” are 439 nM, 0.467 nm, 0.00223 s⁻¹ and 5080 M⁻¹ s⁻¹.
Substance “HSV2-gE_H245A P319G_gI (from UniProt P89475 21-416; P06764 21-256) (receptor)” registered a Kd of 491 nM, a Response (nm) of 0.26 nm, a koff of 0.00391 s⁻¹ and a kon of 7970 M⁻¹ s⁻¹.
As for “HSV2-gE_A248G V340R_gI (from UniProt P89475 21-416; P06764 21-256) (receptor)”, the Kd was found to be 8960 nM, the Response (nm) is 0.303 nm, the koff was determined as 0.00461 s⁻¹ and the kon was 514 M⁻¹ s⁻¹.
Take “HSV2-gE_H245G R320T_gI (from UniProt P89475 21-416; P06764 21-256) (receptor)”: the Kd worked out at 591 nM, the Response (nm) was 0.279 nm, the koff was 0.00319 s⁻¹ and the kon came out at 5400 M⁻¹ s⁻¹.
The substance “HSV2-gE_H245A P319L_gI (from UniProt P89475 21-416; P06764 21-256) (receptor)” yielded a Kd of 449 nM, a Response (nm) of 0.265 nm, an off-rate constant (koff) of 0.00273 s⁻¹ and a kon of 6080 M⁻¹ s⁻¹.
On the same counts, the results for “HSV2-gE_V340R_gI (from UniProt P89475 21-416; P06764 21-256) (receptor)” are below 0.001 nM, 0.201 nm, below 1e-07 s⁻¹ and 6650 M⁻¹ s⁻¹.
On the same counts, the results for “HSV2-gE_R314M_gI (from UniProt P89475 21-416; P06764 21-256) (receptor)” are 608 nM, 0.519 nm, 0.00592 s⁻¹ and 9730 M⁻¹ s⁻¹.
Substance “HSV2-gE_R320T_gI (from UniProt P89475 21-416; P06764 21-256) (receptor)” came in with a Kd of 606 nM, a Response (nm) of 0.37 nm, a koff of 0.0042 s⁻¹ and a kon of 6940 M⁻¹ s⁻¹.
“HSV2-gE_P319L_gI (from UniProt P89475 21-416; P06764 21-256) (receptor)” showed a Kd of 1390 nM, a Response (nm) of 0.328 nm, a koff of 0.00444 s⁻¹ and a kon of 3190 M⁻¹ s⁻¹.
“HSV2-gE_R314F_gI (from UniProt P89475 21-416; P06764 21-256) (receptor)” had a Kd of 884 nM, a Response (nm) of 0.325 nm, a koff of 0.0048 s⁻¹ and a kon of 5430 M⁻¹ s⁻¹.
“HSV2-gE_R314V_gI (from UniProt P89475 21-416; P06764 21-256) (receptor)” gave a Kd of 538 nM, a Response (nm) of 0.408 nm, a koff of 0.00487 s⁻¹ and a kon of 9070 M⁻¹ s⁻¹.
Regarding “HSV2-gE_R320G_gI (from UniProt P89475 21-416; P06764 21-256) (receptor)”, the Kd worked out at 1180 nM, the Response (nm) was determined as 0.322 nm, the koff turned out to be 0.00462 s⁻¹ and the kon amounted to 3920 M⁻¹ s⁻¹.
The corresponding values for “HSV2-gE_F322K_gI (from UniProt P89475 21-416; P06764 21-256) (receptor)” are 278 nM, 0.599 nm, 0.00301 s⁻¹ and 10800 M⁻¹ s⁻¹.
On the same counts, the results for “HSV2-gE_R314I_gI (from UniProt P89475 21-416; P06764 21-256) (receptor)” are 658 nM, 0.446 nm, 0.00556 s⁻¹ and 8450 M⁻¹ s⁻¹.
Take “HSV2-gE_A246W P317F_gI (from UniProt P89475 21-416; P06764 21-256) (receptor)”: the Kd is below 0.001 nM, the Response (nm) was found to be 0.101 nm, the koff is below 1e-07 s⁻¹ and the kon stood at 6180 M⁻¹ s⁻¹.
Regarding “HSV2-gE_R314D_gI (from UniProt P89475 21-416; P06764 21-256) (receptor)”, the Kd worked out at 900 nM, the Response (nm) came out at 0.385 nm, the koff amounted to 0.00583 s⁻¹ and the kon worked out at 6480 M⁻¹ s⁻¹.
Regarding “HSV2-gE_P318Y_gI (from UniProt P89475 21-416; P06764 21-256) (receptor)”, the Kd is below 0.001 nM, the Response (nm) was 0.0215 nm, the koff is below 1e-07 s⁻¹ and the kon came to 3480 M⁻¹ s⁻¹.
As to “HSV2-gE_R320Q_gI (from UniProt P89475 21-416; P06764 21-256) (receptor)”, the Kd amounted to 902 nM, the Response (nm) turned out to be 0.351 nm, the koff was found to be 0.00539 s⁻¹ and the on-rate (kon) stood at 5980 M⁻¹ s⁻¹.
“HSV2-gE_R314G_gI (from UniProt P89475 21-416; P06764 21-256) (receptor)”: the Kd turned out to be 572 nM, the Response (nm) was found to be 0.478 nm, the koff amounted to 0.0052 s⁻¹ and the kon was 9080 M⁻¹ s⁻¹.
“HSV2-gE_A248G F322I_gI (from UniProt P89475 21-416; P06764 21-256) (receptor)”: the Kd amounted to 465 nM, the Response (nm) stood at 0.373 nm, the koff came out at 0.00439 s⁻¹ and the kon was found to be 9450 M⁻¹ s⁻¹.
On the same counts, the results for “HSV2-gE_A248K F322A_gI (from UniProt P89475 21-416; P06764 21-256) (receptor)” are 408 nM, 0.481 nm, 0.00397 s⁻¹ and 9720 M⁻¹ s⁻¹.
On the same counts, the results for “HSV2-gE_F322T_gI (from UniProt P89475 21-416; P06764 21-256) (receptor)” are 179 nM, 0.762 nm, 0.00269 s⁻¹ and 15000 M⁻¹ s⁻¹.
On the same counts, the results for “HSV2-gE_P317K_gI (from UniProt P89475 21-416; P06764 21-256) (receptor)” are 374 nM, 0.13 nm, 0.00136 s⁻¹ and 3640 M⁻¹ s⁻¹.
As to “HSV2-gE_S338T_gI (from UniProt P89475 21-416; P06764 21-256) (receptor)”, the Kd was found to be 186 nM, the Response (nm) turned out to be 0.785 nm, the koff amounted to 0.00254 s⁻¹ and the kon was 13600 M⁻¹ s⁻¹.
In turn, “HSV2-gE_R320S_gI (from UniProt P89475 21-416; P06764 21-256) (receptor)” yielded a Kd of 1050 nM, a Response (nm) of 0.343 nm, a koff of 0.00547 s⁻¹ and a kon of 5190 M⁻¹ s⁻¹.
“HSV2-gE_P317L_gI (from UniProt P89475 21-416; P06764 21-256) (receptor)” showed a Kd of 5110 nM, a Response (nm) of 0.161 nm, a koff of 0.00181 s⁻¹ and a kon of 354 M⁻¹ s⁻¹.
